Like-named read-outs stand apart in the source and are kept apart here. Each block holds one substance with its values, some of them ahead of it.
Legend:
[1] = target: Wild type CXCL8 (human); test: SPR
[2] = target: Wild type CXCL8 (human); test: SPR; remark: listed apart in the source
[3] = target: Isolated Link module of human TSG-6 (Link_TSG6) (human) (UniProt P98066); test: SPR
[4] = target: Isolated Link module of human TSG-6 (Link_TSG6) (human) (UniProt P98066); test: SPR; remark: listed apart in the source
[5] = target: CXCR2 (Homo sapiens) (UniProt P25025); conditions: cited from earlier work
CXCR2 (Homo sapiens), sequence (P25025 whole entry): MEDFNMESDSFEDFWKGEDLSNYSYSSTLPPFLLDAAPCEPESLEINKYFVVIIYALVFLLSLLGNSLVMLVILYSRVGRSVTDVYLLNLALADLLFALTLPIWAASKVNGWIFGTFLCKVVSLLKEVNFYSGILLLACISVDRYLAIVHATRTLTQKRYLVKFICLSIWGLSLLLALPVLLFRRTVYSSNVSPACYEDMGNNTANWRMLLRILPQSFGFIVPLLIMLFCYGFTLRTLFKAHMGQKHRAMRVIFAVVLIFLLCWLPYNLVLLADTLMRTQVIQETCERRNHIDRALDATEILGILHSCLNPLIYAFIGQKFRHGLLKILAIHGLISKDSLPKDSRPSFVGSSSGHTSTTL

[6] = target: Wild type CXCL8 (human)
[7] = target: CXCL8 (Homo sapiens) (UniProt P10145); conditions: cited from earlier work
CXCL8 (Homo sapiens), sequence (P10145 28-99): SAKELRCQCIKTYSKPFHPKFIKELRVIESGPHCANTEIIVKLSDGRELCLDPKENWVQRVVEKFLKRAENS

Isolated Link module of human TSG-6 (Link_TSG6) (human), sequence (P98066 36-129): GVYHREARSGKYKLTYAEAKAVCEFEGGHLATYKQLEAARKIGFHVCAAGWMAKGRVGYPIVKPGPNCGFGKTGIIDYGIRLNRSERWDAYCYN
Full-length, wild type recombinant human TSG-6, sequence (P98066 18-277): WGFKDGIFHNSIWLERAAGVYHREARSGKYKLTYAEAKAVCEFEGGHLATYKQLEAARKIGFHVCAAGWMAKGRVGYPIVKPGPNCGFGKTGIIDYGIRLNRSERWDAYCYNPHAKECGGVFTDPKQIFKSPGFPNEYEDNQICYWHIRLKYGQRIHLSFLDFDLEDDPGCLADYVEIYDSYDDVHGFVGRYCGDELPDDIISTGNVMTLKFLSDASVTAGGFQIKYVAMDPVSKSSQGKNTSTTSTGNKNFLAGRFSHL
CXCL8, sequence (P10145 28-99): as the sequence (P10145 28-99) above
Evasin-3, sequence (P0C8E8 21-86): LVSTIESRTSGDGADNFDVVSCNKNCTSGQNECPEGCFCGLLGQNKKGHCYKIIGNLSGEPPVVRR
Isolated Link module of human TSG-6 (Link_TSG6), sequence (P98066 36-129): as the sequence (P98066 36-129) above

- Kd [1]: 74 nM
- Kd [2]: 20 nM
Substance: Full-length, wild type recombinant human TSG-6 (from UniProt P98066 18-277) (natural protein)

- Kd [3]: 21 nM
- koff [3]: 0.0011 s⁻¹
- Kd [4]: 6 nM
- koff [4]: 0.00032 s⁻¹
Substance: Wild type CXCL8 (ligand)

- inhibition of CXCL8-induced neutrophil trans-migration (Transwell) [6]: 10 nM
Substance: Isolated Link module of human TSG-6 (Link_TSG6) (from UniProt P98066 36-129) (domain or fragment)

Further lines, the substance ahead of its results:

Substance: CXCL8 (from UniProt P10145)
- Kd [5]: 1 nM

Substance: Evasin-3 (from UniProt P0C8E8)
- Kd [7]: 1 nM
